Laboratory results: the DeepSol protein solubility set

Test: soluble on expression in E. coli; label from the status in PepcDB or PDB records

Sequence | soluble on expression in E. coli
MSDRVIIAGGGIGGLASALTLHQIGVPCVVYEAAREMRPLGVGINLQPNAVRELLDLGITEADLDGVGLPAKEWALVGLNGNDIYAEPRGKAAGYRWPQYAVHRGRFHMLLNDKVIERLGADAVQLGRRVTSYRKTADGVVATVEHADGGTSEVSGALLIGADGIHSAVRAQMHPNQPPIHWGGAVMWRGTTWGKPTRSGASFIGLGTHRHRVVIYPISHPDPATGLSMLNWIAEVTLDNAEGWKQQGWFRQVPTSEFAHHFDGWVWDWLDVPAMIREADSAYENPMIDRDPVATWRDGPVVLIGDAAHAMYPTGSNGGTQAIVDARELGAAMVAHGATEAALAAFDAKLCGPISQLILRNRGAGPFGLLNLVDERCGGTFDNIDDVIPPAERAAFMAGYKAAAGFAIDHLNAAPPTIAPGARVKESAAALEHHHHHH | not soluble
MPVTQEEIIAGIAEIIEEVTGIEPSEITPEKSFVDDLDIDSLSMVEIAVQTEDKYGVKIPDEDLAGLRTVGDVVAYIQKLEEENPEAAQALRAKIESENPDAVANVQARLEAESK | soluble
MTKPSVGINGFGRIGRLVLRAAVEKDSVNVVAVNDPFISIDYMVYLFQYDSTHGRFKGTVAHEGDYLLVAKEGKSQHKIKVYNSRDPAEIQWGASGADYVVESTGVFTTIEKANAHLKGGAKKVIISAPSADAPMFVVGVNHEKYDHANDHIISNASCTTNCLAPLAKVINDNFGIIEGLMTTVHAVTATQKTVDGPSGKLWRDGRGAGQNIIPASTGAAKAVGKVIPELNGKLTGMAFRVPTPDVSVVDLTARLEKPASLDDIKKVIKAAADGPMKGILAYTEDQVVSTDFVSDTNSSIFDAGASISLNPHFVKLVSWYDNEFGYSNRVVDLISYIATKA | soluble
MGSSHHHHHHGKTIFVIVPTNEEQVAFLEALAKQDELNFDWQNPPTEPGQPVVILIPSDMVEWFLEMLKAKGIPFTVYVEEGGSENLYFQGGGGGGVNPVVEFVDVGCAFGGMLFSLAAVFPATCMMGLEIRPKVVSFAQEKALALRQENAASLTQHYRNVWFEQMNVMKFGSNCFTKGQLSRLFFCYPDPHWKRKNIRRRIISPGLVQEYAYWLRHGGLVYTVSDVAELEEWMVQCLDDSPLFRRLAEAELCTPEHKQVLEIVTGASEDAQRTARKGLQKHFAVHMRI | not soluble
MDRTTGKPLVGIEHLRQSIIDILSTRIGTRVMRRDYGSRIAELIDAPVNSSFSIALYAAVAEALDKWEPRFKLKKIDFKMLGTGQVSLSFEGMYLPSGKPITMEGLLIQ | not soluble
MGQNQFRWSNEQLREHVEVIDGTRSPHIVLRNATYLNSYIREWMQANIWIYDDRIIYVGEKLPEQLHECEVIDCDGKYVVPSYIEPHAHPYQLYNPETLANHAMQFGTTTFINDNLTLFFTLKRELEHHHHHH | not soluble
INMEEIREFAKNFKIRRLSLGLTQTQVGQAMTATEGPAYSQSAISRFEKLDITPKSAQKLKPVLEKWLNEAELRNQEGQQNLMEFVGGEPSKKRKRRTSFTPQAIEALNAYFEKNPLPTGQEITEMAKELNYDREVVRVWFSNRRQTLKNT | soluble
GASIHDPISAGRYFAQRLRANPNEVFAVLFLDNRHRAISFEELFHGTINGAEVHPREVVRRALTLNAAAVIVGHNHPSGNREPSPADQMITQRLKNALDLIDVRLVDHFVIGDGAPVSFAEHGWL | not soluble
MIRSMTAYARREIKGEWGSATWEMRSVNQRYLETYFRLPEQFRSLEPVVRERIRSRLTRGKVECTLRYEPDVSAQGELILNEKLAKQLVTAANWVKMKSDEGEINPVDILRWPGVMAAQEQDLDAIAAEILAALDGTLDDFIVARETEGQALKALIEQRLEGVTAEVVKVRAHMPEILQWQRERLVAKLEDAQVQLENNRLEQELVLLAQRIDVAEELDRLEAHVKETYNILKKKEAVGRRLDFMMQEFNRESNTLASKSINAEVTNSAIELKVLIEQMREQIQNIE | not soluble
GIVATRYRDFSPLLEALTQLLFYVTPIVWTTETLYSQGGAVSERAKLAMLNPLYHYMEVIRAPLIGAPIHP | not soluble
MVQISDLPRDLTEEVLSRIPVTSMRAVRFTCKKWNTLSKDRSFTKKHLRGARAAAKKKQTKEFQVIMMIQFRVYLYSVNLLNPSIERIGKLISLDVEDHVDISKIFHCGGLLLCITKDISRLVVWNPYSGQTRWIKPRNSYHRLDRYALGYEEKNKSCRCYKILRFMDDYEDDRALRLIREFEIYDLNSDSWKVVNVTPDWDVEFYHRGLSLKGNTYWFAQEKLPPLPRGRVITISDMADFLLCFDFTRERFGPRLPLPFHSFVEDTVTLSSVRDKKLAVLFQPCSASTVKIWISRKIEPNAVSWRKVFLAVDMKSLTGFQFDINAASFFVDEKKKVAMVLDKDRFSYKFTRNIAYIIGKKGYFEKVDLGESTVSSCASLVCSYVPSSVQI | soluble
MGSDKIHHHHHHMTRYQHLAGLLEQRIEQGLYQSGERLPSVRALSTEHGVSISTVQQAYHLLETRQLIMPQPRSGYFVTPRKATPPVPALTRPAQRPVEITQWESVLELVNVRLETNVLKFGSGMPDVSQPTIKPLWKEMSRLCQYQDPRVLQYDSVYGVPALREQIARLTVDCGCQLNQDDIVITTGCQEALFVAVRAVCQPGDIVAVESPAFPGTMQILRGLDIKAIEIPTDSVTGISLEALRLALDQWPVKAVLLVPSCNNPLGFIMPDARKKSLVTLAQHFDIAIIEDDAYGELAYEYPRPRAIKSFDEDGRVLLCSSFSKNLAPGLRVGWIAPGRYLERVIHTKYISTGSTVVQPQLAVAEFIRRGHYQPHLRRMRAQYKANLDIFTCWVREYFPSNICVSRPQGGFLVWIELPEYFDSLKLAREVRKAGIQIAAGSLFSASGKYRNCIRLNYANRFTEEMREGLRIVGSEVAKMMHTLPDQSAP | not soluble
MGSDKIHHHHHHMLIEIPNVFSKQEVSHLREQLDARRWIDGNQTSGAMATTRKRNQQLDKDDPVAVALGQQIMDRLLAHPQFVSAALPLQFYPPLFNRYQGGETFGYHIDNAIRSTPDGMIRTDLSATLFLSEPENYQGGELVIQDTYGQQSIKLSAGSLVLYPSSSLHQVTPVLSGERTAAFMWLQSMVRDEGQRRLLFQLDQSIQSLTAQTAAEQELFNLSGVYHNLLRRWSEL | not soluble
ADMGEKFDATFKAQVKAAKADMVMLSPKDAYKLLQENPDITLIDVRDPDELKAMGKPDVKNYKHMSRGKLEPLLAKSGLDPEKPVVVFCKTAARAALAGKTLREYGFKTIYNSEGGMDKWLEEGLPSLDRSHHHHHH | soluble
MAHHHHHHMEKKKKESTIKISLNINTKFNESYLDEQNDIINEALIKNNNKEIIHSLNLIENIRQGTFDYKDLREVYFMNDNDLFSMLNDKKASEEKGKGKEDAHNNNNIDNKICNNDKVGDKNKKLSNNNNNNGNDLNIQIEGDQNYNFNKNNETNIFVLDNDVDKVCIIRFPFSVSKDIKKYLLNKNLDMVIQPTTLLNSRFFLIHFKNINKKFHGILLELSTHIEIHKTLDRNNLYKSNDVSQMIYVYEHNTNSKELLKKFINNNFELCGGISKKLNHFIFQNHTKLFKYHDIYFAEKLIYEYLNTPYYDYFDLYVKTLNEMHNHIIMEKENNNKQNEIVDETTDLAAILGSLDNSYNIMNLIEKQDGDIDFEALLNYDIEKENYESDVSDLLLGGTYYLQKK | not soluble
MTGSATRFGGSPGPVFALEKGERVEQMKLFKTYKEQVELLGQRGMQIDNSERAEKLLAQLNYYRLSGYWYPMRRFSPQNGIAQDEFVDGASFDLVVALYEFDERLRHSVFIELDRVELAIQTRLGHELGRLDPLIYLDPQRLGARASQRGKGERTVHEVWIGKYQSALKASKEDFVAHHNSKYGGTLPIWAAVEVMDWGMLSYLYGMSPNIVRKRIAEPCGLTGPQLESWLKSLNILRNYAAHHARMFNRVYDIKPKLNNDPKLTPVANRMNRVFGQLSMIQYLHHQLGLSQADRLTRLFNTYPHNPIVPLSRTGAPENWQELALWVP | not soluble
MTNDTNITNDKDINANIAHDDHFNDSIVNEVILEDMKKNRIDHMKYLPDMEVLDSDIMDRVVAEMDAYDYDQYTAADVRAALSHEYRTLEDFKALLSPAAQPFIEEIAQAAQLETRKHFGNSVCMFTPLYISNYCENYCIYCGFNCHNKINRAKLNASEIEKEMAAIAKTGLQEILILTGESKKMSDVEYIGEACKIARKYFKVIGLEVYPMNSDEYAYLHECGADYVTVFQETYNSDKYETLHLAGHKRIFPYRVNAQERALKGGMRGVGFAALLGLDDFRKDALATGYHAYLLQKKYPRAEIAFSCPRLCPIINNDRINPKDVHETQLLQVVCAYRLFMPFASITISTREVARVRDNLVNIAATKISAGVSTGIGSHVDDIEDKGDDQFEISDGRSVDEVFNALLDNGLQPVMSDYIYV | not soluble
MGSDKIHHHHHHMHLGKYIKKYRDTNNLSMAEFAKESGISKAYVSILEKNRDPRNGKEIIPSIPIIKKVSDTIGISFDDLLNSLDENQIVALNETKTEKNLTSSTLQKITSTSSQLEQPRQEKVLSFANEQLEEQNKVVSMFDRKVEETENYITDYVEGLVAAGLGAYQEDNLHMEVKLRADDVPDKYDTIAKVAGNSMEPLIQDNDLLFVKVSSQVDMNDIGIFQVNGKNFVKKLKRDYDGAWYLQSLNKSYEEIYLSENDNIRTIGEVVDIYREN | not soluble
MTSQPTSSLQGSCSICFEDLKQNDKISAIVCGHIYHHGCISQWIATKRQCPSCRRTVPKNGFVEKLFFDVQRMGGEAEKPPEIDYREEHYKLSTSLKVEQEKLGTLNTENKNLKDTVKSLEKKIIREKDKYRQEIPKLQATINHLTISSEETAYLKRELQESKNRLKTCEFYKILTVHSSEADKQLGEYLKKNGNLDTEKFFQLMKSTNKDLTDKRREAAKEIEQLKMEVQSLKRAAQEDAAIKKV | not soluble
MGSDKIHHHHHHMNVVVCIKQVPDTTNVRIDRKTNNLVREGVPSIINPDDERALELASQLKEKFGATVYVITMGPPQAKEALKDAIAFGLDEAVHLSDRTFAGADTLATTYTLYWGIKKIEERIGKIDLILTGKQAVDGDTGQVGPGLATRFGYALGAYVVRIEEIDPEKKEMVIVRRLDQGFEKIRLKLPAVLTITDELNKPRYADLPNLIRAIRYEPIVWTHKDLGLDPKKCGFFGSPTRVVSTNIPPARKGGDIISKNEDPEVAAEKLIEALKKFEAVRLVEALKPVLEGEKDE | not soluble
MTEGDDQLISIRKQLENLNNATDDINSYEMKLETVKKQFCETQLMFNKEMLGIPKKLAKHISKSRQFFDLKSRESEIRRCVQQAAAQFERQKTSVEMAREQVQILHNSLNNNQELDAEKQYVDVIEQQLELVKEAEGECLKAEKCHASRVRDLLQLEMALRKCLEENGSAIKKSRPYYERKEVLTRTMNSQLELMSILEHEVQERKDSYSDSMRALEQISDQIHQERSSQSSLAPSSDAESDSS | not soluble
MQILKAIGLLMEYPDDELWECRDEALTLIQHDAPMLADFTRELLYAPLLDKQAEWCEVFDRGRATSLLLFEHVHAESRDRGQAMVDLLSQYETVGLHLNCRELPDHLPLYLEYLSVLPEAEAREGLQNIAPILALLGGRLKQRGAPWYQLFDALLTLAGSTLTSDSVTKQIIQESRDDTRQALDAVWEEEQVKFIEDNATTCDSSPLHHYQRRFSQDAAPQYVDVSAGGPK | not soluble
MQDIHFRRHYVRHLPKEVSQNDIIKALASPLINDGMVVSDFADHVITREQNFPTGLPVEPVGVAIPHTDHKYVRQNAISVGILAEPVNFEDMGGEPDPVPVRVVFMLALGESNKQLNVLGWIMDVIQDEDFMQQLLVMNDDEIYQSIYTRISERGEV | soluble
